The target in assay [1] is T1, Human full-length (1–192) wild-type BAX (human, UniProt Q07812 1-192). The assay can be described thus: FP; 0 uM EO.
The target of assay [2] is T1, Human full-length (1–192) wild-type BAX. The assay can be described thus: FP; 1 uM EO (eltrombopag).
Assay [3] shares this target. As to the kind of experiment: FP; 0.5 uM EO (eltrombopag).

The source of these data is paper PMC7892824 (2021).

Bridges are numbered along the chain shown (N, C = ends). [ ]: non-standard residue; d: D form. The star is where a group is joined. FITC = O=C1OC2(c3ccc(O)cc3Oc3cc(O)ccc32)c2ccc(NC(=S)*)cc21; S5 = C=CCCC[C@](C)(N)C(=O)O; Ahx = NCCCCCC(=O)O Where only a bound is given, the exact number is not on record here.

T1 sequence (Q07812 whole entry): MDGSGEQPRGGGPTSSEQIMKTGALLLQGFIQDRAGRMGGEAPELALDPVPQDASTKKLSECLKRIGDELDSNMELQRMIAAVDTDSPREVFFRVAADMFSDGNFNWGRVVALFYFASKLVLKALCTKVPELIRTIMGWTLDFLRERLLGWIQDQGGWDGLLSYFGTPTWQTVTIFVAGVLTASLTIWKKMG

B1: FITC-BIM–SAHB, fluorescently-labeled hydrocarbon-stapled BIM–BH3 peptide (peptide)
chain: {FITC-Ahx}-EIWIAQELR[S5]IGD[S5]FNAYYA-NH2
modifications: staple 10-14
SMILES: CC[C@H](C)[C@H](NC(=O)[C@H](Cc1c[nH]c2ccccc12)NC(=O)[C@@H](NC(=O)[C@H](CCC(=O)O)NC(=O)CCCCCNC(=S)Nc1ccc2c(c1)C(=O)OC21c2ccc(O)cc2Oc2cc(O)ccc21)[C@@H](C)CC)C(=O)N[C@@H](C)C(=O)N[C@@H](CCC(N)=O)C(=O)N[C@@H](CCC(=O)O)C(=O)N[C@@H](CC(C)C)C(=O)N[C@@H](CCCNC(=N)N)C(=O)N[C@@]1(C)CCCC=CCCC[C@@](C)(C(=O)N[C@@H](Cc2ccccc2)C(=O)N[C@@H](CC(N)=O)C(=O)N[C@@H](C)C(=O)N[C@@H](Cc2ccc(O)cc2)C(=O)N[C@@H](Cc2ccc(O)cc2)C(=O)N[C@@H](C)C(N)=O)NC(=O)[C@H](CC(=O)O)NC(=O)CNC(=O)[C@H]([C@@H](C)CC)NC1=O
What is called Kd is the equilibrium constant for the complex coming apart. Low readings indicate a tighter complex, high ones a looser complex. For B1, the Kd in assay [1] is 110 nM; in assay [2], greater than 2000 nM; in assay [3], 613 nM.
